Assay results from patent publication US20250250335A1 (SHENGHE CHINA BIOPHARMACEUTICAL, published 2025).
Residue numbers refer to the chain shown, from its start. Each block holds one binder with its values, some of them ahead of it.

Legend:
[1] = target: T1, human CEACAM5-his (ACRO CE5-H5226) (human, UniProt P06731 35-685); experiment: ELISA on coated human CEACAM5, OD450
T1 construct: Bought protein; not shown: His tag
T1 sequence (looked up): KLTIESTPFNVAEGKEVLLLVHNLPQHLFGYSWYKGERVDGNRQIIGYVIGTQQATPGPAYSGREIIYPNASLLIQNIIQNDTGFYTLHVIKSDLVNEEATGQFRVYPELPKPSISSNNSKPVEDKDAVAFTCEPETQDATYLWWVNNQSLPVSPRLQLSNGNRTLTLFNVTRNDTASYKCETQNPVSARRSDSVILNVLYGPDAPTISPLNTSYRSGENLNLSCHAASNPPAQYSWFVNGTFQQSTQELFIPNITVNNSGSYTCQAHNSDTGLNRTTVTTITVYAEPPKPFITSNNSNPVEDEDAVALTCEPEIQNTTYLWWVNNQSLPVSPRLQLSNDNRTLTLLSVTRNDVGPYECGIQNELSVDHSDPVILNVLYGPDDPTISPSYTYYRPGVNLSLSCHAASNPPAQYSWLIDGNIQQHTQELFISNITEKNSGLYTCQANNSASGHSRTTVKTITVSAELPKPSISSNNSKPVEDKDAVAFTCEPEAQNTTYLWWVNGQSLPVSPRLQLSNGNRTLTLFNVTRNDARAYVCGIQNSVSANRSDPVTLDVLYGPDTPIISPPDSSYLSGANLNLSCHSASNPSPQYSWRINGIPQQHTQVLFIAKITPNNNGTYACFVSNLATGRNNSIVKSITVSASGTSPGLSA
Protocol: (§1) The binding activity of the antibodies to human CEACAM5, human CEACAM6, and human CEACAM6 (AB) proteins was detected by ELISA. The plate coated with proteins was incubated at 4° C. overnight, and the 96-well ELISA plate blocked with 2% PBS-BSA was added with the antibody to be detected and incubated at 37° C. for 1 h. After washing 3 times with PBS containing 0.05% Tween, the absorbance value of each well was read at wavelength 450 nm with the gradient-diluted mouse-derived candidate antibody as the primary antibody and anti-mouse-IgG-FC-HRP as the secondary antibody, and the absorbance value of each well was read at wavelength 450 nm after the TMB color development.

[2] = target: T2, CEACAM5 on the surface of the tumor cells (HPAFII cells) (UniProt P06731 35-685); experiment: flow cytometry on HPAFII cells (Mean-FITC); the cells carry CEACAM5 and CEACAM6, signal not divided between the two
T2 construct: whole, on cells
T2 sequence (looked up): T1 sequence (looked up)
Protocol: (§2) The antibody to be tested was taken as the initial concentration of 200 nM and diluted 5-fold with 6 gradients. The HPAFII cells (From USTC […] FOR ADVANCED STUDIES) in the incubator were taken out, and the cell suspension was transferred to a 15 mL centrifuge tube, centrifuged, and counted by resuspension in PBS. A blank control group (Blank), a negative control group (NC), an experimental group, a positive control group and the irrelevant antibody group were kept. […] The cell suspension was spread in a 96-well plate according to about 3×10⁵ cells/well. Centrifugation (1000 rpm, 5 min) was performed, followed by washing with PBS, re-centrifugation, and repeated twice to remove media residues. The supernatant was discarded, 100 μL of primary antibody solution and irrelevant antibody solution were added to the experimental group and irrelevant antibody group, respectively, and the cells were resuspended and incubated at room temperature for 1 h. The blank group, and the negative control group were incubated with an equal amount of PBS.
(§3) After 1 h, PBS was added to wash twice. After the supernatant was discarded, 100 μL of fluorescent secondary antibody dilution (Mouse-derived secondary antibody from Abcam ab6785) was added to each sample group, except for the blank group which was added with 100 μL of PBS. After incubation at room temperature and protected from light for 0.5 h, centrifugation was performed and PBS added to wash the samples twice. After the supernatant was discarded, 120 μL of PBS was added to resuspend and sequentially flow cytometry was performed to detect the mean fluorescence intensity. The concentration of the antibody was logarithmically taken as the horizontal coordinate, and the Sigmoidaldose-response (VariableSlope) method (GraphPadPrism Software, GraphPadSoftware, San Diego, California) was chosen to perform a nonlinear regression to obtain the binding activity curves of the antibody on HPAFII cells.

[3] = target: T3, CEACAM6 on the surface of the tumor cells (HPAFII cells) (UniProt P40199 35-320); experiment: as above
T3 construct: whole, on cells
T3 sequence (looked up): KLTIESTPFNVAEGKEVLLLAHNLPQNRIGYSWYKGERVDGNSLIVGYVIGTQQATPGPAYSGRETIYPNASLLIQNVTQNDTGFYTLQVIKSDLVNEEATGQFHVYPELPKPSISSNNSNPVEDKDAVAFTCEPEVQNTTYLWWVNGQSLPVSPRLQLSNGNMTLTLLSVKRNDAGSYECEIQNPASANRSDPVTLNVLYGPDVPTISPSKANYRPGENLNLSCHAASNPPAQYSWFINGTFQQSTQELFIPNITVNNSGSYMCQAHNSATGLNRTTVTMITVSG
Protocol: as §2, §3

[4] = target: T4, Human-CEACAM6 (AB)-His (human, UniProt P40199 145-314); experiment: ELISA on coated human CEACAM6 (AB), OD450
T4 construct: Made in house, purified on a nickel column
T4 sequence (P40199 other isoform, or with tags, fused parts or gaps limits assumed): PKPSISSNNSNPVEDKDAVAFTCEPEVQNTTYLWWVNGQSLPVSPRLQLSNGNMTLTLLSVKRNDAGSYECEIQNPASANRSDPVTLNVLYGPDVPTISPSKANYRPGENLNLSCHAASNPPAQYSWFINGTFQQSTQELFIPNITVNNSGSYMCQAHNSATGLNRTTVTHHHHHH
Protocol: as §1

[5] = target: T3, CEACAM6 on the surface of the tumor …; experiment: flow cytometry on HPAFII cells (Mean PE); the cells carry CEACAM5 and CEACAM6, signal not divided between the two
Protocol: Centrifugation (1000 rpm, 5 min) was performed, followed by washing with PBS, re-centrifugation, and repeated twice to remove media residues. The supernatant was discarded, 100 μL of primary antibody solution and irrelevant antibody solution were added to the experimental group and irrelevant antibody group, respectively, and the cells were resuspended and incubated at room temperature for 1 h. The blank group, and the negative control group were incubated with an equal amount of PBS.
as §3, with “(Secondary” for “(Mouse-derived secondary”, “ab98596)” for “ab6785)”

[6] = target: T5, mouse CEACAM5 (mouse, UniProt Q3UKK2 35-947, limits assumed); experiment: ELISA on coated protein, OD450
T5 sequence (looked up): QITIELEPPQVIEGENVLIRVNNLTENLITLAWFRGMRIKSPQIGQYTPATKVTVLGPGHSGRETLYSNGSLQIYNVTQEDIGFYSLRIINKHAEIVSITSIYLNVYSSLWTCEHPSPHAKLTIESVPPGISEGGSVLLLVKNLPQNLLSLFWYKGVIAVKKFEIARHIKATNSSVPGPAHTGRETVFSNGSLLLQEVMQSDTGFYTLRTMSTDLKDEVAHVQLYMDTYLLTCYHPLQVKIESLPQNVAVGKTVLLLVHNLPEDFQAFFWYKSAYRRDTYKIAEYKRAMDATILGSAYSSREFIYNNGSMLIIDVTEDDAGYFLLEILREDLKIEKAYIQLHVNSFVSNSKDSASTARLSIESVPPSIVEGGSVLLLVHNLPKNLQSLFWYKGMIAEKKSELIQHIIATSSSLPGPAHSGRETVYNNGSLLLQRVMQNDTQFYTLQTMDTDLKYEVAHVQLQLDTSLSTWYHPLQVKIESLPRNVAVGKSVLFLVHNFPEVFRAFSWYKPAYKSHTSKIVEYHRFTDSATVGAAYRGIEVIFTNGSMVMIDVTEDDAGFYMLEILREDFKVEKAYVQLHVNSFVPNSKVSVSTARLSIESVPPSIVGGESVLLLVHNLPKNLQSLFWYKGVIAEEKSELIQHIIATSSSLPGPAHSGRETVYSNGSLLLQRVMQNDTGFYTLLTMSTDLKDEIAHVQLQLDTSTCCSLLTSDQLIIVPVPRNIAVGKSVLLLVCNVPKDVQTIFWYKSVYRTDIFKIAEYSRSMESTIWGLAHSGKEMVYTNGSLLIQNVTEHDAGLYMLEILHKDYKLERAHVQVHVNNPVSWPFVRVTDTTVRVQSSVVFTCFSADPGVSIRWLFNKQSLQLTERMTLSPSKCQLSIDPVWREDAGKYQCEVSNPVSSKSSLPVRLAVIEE
Protocol: The affinity of the antibodies to monkey CEACAM5, monkey CEACAM6, and mouse CEACAM5 proteins was determined by ELISA. The plates encapsulated with […] proteins were incubated at 4° C. overnight, and the antibodies to be detected were added to 96-well ELISA plates after being blocked with 2% PBS-BSA and incubated at 37° C. for 1 h. After washing 3 times with PBS containing 0.05% Tween, the absorbance value of each well was read at wavelength 450 nm with the antibody to be detected as the primary antibody and Goat anti-mouse IgG-FC-HRP as the secondary antibody, and the absorbance value of each well was read at wavelength 450 nm after the TMB color development. The specific binding to CEACAM5 and CEACAM6 of mouse and monkey was detected by Elisa method.

EC50 (read off the curve) [1]: ~0.02 µg/mL
EC50 (read off the curve) [2]: ~6 nM
EC50 (read off the curve) [3]: ~6 nM
EC50 (read off the curve) [4]: ~0.01 µg/mL
B1: Antibody 9 (antibody, V domains shown)
VH: EVKLVESGGGLVQPGGSLRLSCATSEITFIDYYMSWVRQPPGKALEWLGLIRNKANGYTTEYSESVKGRFTISRDKSQSILYLQMNTLRVEDSATYYCARDPGINWYFDVWGAGTTVTVSS
VL: QNILSQSPTILSASPGEKVTMTCRASSSVSYMHWYQQKPGSSPKPWIYATSNLASGVPARFSGSGSGTSYSLTISRVEAEDVAIYFCQRWGYNPPTFGAGTKLELK
notes: Mouse-derived hybridoma antibody; also called mouse-derived antibody 9

binding result [5]: binds
B2: Antibody I (antibody, human IgG1, kappa, V domains shown)
VH: EVKLVESGGGLVQPGGSLRLSCATSEFTLIDYYMSWVRQSPGKALEWLGYIRNKVNGHTTDYIASVKGRFTISRDDSKNSLYLQMNSLKTEDTATYYCVRDPGINWYFDVWGQGTLVTVSS
VL: QIVLTQSPATLSLSPGERATLSCRASSRVTYMHWYQQKPGSSPKPLISATSNLASGIPARFSGSGSGTDYTLTISSLEPEDFATYYCQQWSYNPPTFGGGTKLELKR
notes: humanized from mouse-derived antibody 2; also called humanized antibody I

EC50 (read off the curve) [1]: ~0.009 µg/mL
EC50 (read off the curve) [2]: ~7 nM
EC50 (read off the curve) [3]: ~7 nM
OD [6]: 0.15 OD
B3: Antibody 10 (antibody, V domains shown)
VH: QVQLQQSGPELVRPGVSVKISCKGSGYTFTDFAMHWVRQSHSKSLEWVGIITTYGGDTNYNQKFRGKATMTVDRSSSTVFLELARLTSEDSAIYYCARNRAYRFFYAMDYWGQGTSVTVSS
VL: DIQMTQSPASLSASVGETVTITCGASENIYGALNWYQRKQGKSPHLLIYGATNLADGMSSRFSGSGSAGQYSLNISSLHPDDVATYYCQNVLFAPYTFGGGTRLEIK
notes: Mouse-derived hybridoma antibody; also called mouse-derived antibody 10

EC50 (read off the curve) [1]: ~0.01 µg/mL
EC50 (read off the curve) [2]: ~4 nM
EC50 (read off the curve) [3]: ~4 nM
B4: Antibody 11 (antibody, V domains shown)
VH: B3 VH with M34I, K43R, R74K
VL: B3 VL with H45Q, N90S
notes: Mouse-derived hybridoma antibody; also called mouse-derived antibody 11
